In paper doi:10.1101/2020.01.31.925156:
Where “and” joins values, the source holds several entries; their conditions need not be identical. Identical values can stand only once. Like-named read-outs stand apart in the source and are kept apart here.

Assays:
Assay in all cases: mass photometry
[1] = molecular target: recombinant human FcRN (His and Avi tagged), neonatal Fc receptor (human) (UniProt P55899)
[2] = molecular target: trastuzumab (Herceptin®), immunoglobulin G (IgG) monoclonal antibody
[3] = molecular target: recombinant human FcRN (His and Avi tagged), neonatal Fc receptor (human) (UniProt P55899); remark: listed apart in the source
[4] = molecular target: trastuzumab (Herceptin®), immunoglobulin G (IgG) monoclonal antibody; remark: listed apart in the source
[5] = molecular target: trastuzumab (Herceptin®), immunoglobulin G (IgG) monoclonal antibody; remark: listed apart in the source
[6] = molecular target: recombinant human FcRN (His and Avi tagged), neonatal Fc receptor (human) (UniProt P55899); remark: listed apart in the source
[7] = molecular target: recombinant human FcRN (His and Avi tagged), neonatal Fc receptor (human) (UniProt P55899); remark: listed apart in the source
[8] = molecular target: deglycosylated trastuzumab
[9] = molecular target: deglycosylated trastuzumab; remark: listed apart in the source
[10] = molecular target: deglycosylated trastuzumab; remark: listed apart in the source
[11] = molecular target: trastuzumab (Herceptin®), immunoglobulin G (IgG) monoclonal antibody; remark: listed apart in the source

Substance	Kd [1]	stoichiometry N [1]	Kd [2]	Kd [3]	Kd of IgG plus two FcRns (second FcRn) [4]	Kd of IgG-FcRn monomer (first FcRn) [4]	stoichiometry N [4]	Kd [5]	Kd [6]	Kd [7]	Kd [8]	percent bound antibody [8]	percent complex formation [2]	Kd [9]	Kd [10]	koff [10]	kon [10]	Kd [11]	koff [11]	kon [11]
recombinant human FcRN (His and Avi tagged), neonatal Fc receptor (from UniProt P55899)	31 nM	2	> 200 nM	44 nM and 171 nM	6.6 nM and 3.9 nM	59 nM and 225 nM	2	> 200 nM	> 200 nM	> 200 nM	–	–	–	–	–	–	–	–	–	–
FcγRIa (CD64 human recombinant, His Tag) (from UniProt P12314) (receptor)	–	–	0.05 nM	–	–	–	–	–	–	–	1 nM	50%	90%	0.6 nM and 0.7 nM	1.1 nM	0.0068 s⁻¹	6e+06 M⁻¹ s⁻¹	0.026 nM	0.00052 s⁻¹	1.9e+07 M⁻¹ s⁻¹
